For assay [1], the target named is T1, Recombinant TNFα containing an N-terminal 13-aa ybbR tag (human, UniProt P01375 77-233, biotin at the ybbR tag in the ELISA assays).
T1 construct: Expressed in E. coli; Same construct used unlabelled (FA) and biotinylated on NeutrAvidin (ELISA); also called tumor necrosis factor-alpha; human TNFα; not shown: N-terminal 13-aa ybbR tag
Put plainly: FA. On the procedure: (§1) The FA values were measured on a Molecular Devices Spectramax M5 spectrofluorimeter, with excitation and emission wavelengths at 485 and 525 nm, respectively. Equilibrium dissociation constants (KD) were determined by plotting the FA values as a function of TNFα concentration and fitting the data to the following equation $$Y = \frac{\left(Amin + \left(Amax \times \frac{Q_b}{Q_f} - Amin\right)\left(\frac{(L+x+K_d) - \sqrt{((L+x+K_d)^2 - 4Lx)}}{2L}\right)\right)}{\left(1 + \left(\frac{Q_b}{Q_f} - 1\right)\left(\frac{(L+x+K_d) - \sqrt{((L+x+K_d)^2 - 4Lx)}}{2L}\right)\right)}$$
(§2) where Y is the measured anisotropy at a given TNFα concentration x; L is the bicyclic peptide concentration; Qb/Qf is the correction fact for dye-protein interaction; Amax is the maximum anisotropy when all the peptides are bound to TNFα, while $Amin$ is the minimum anisotropy. […] The FA values were plotted against the competitor peptide concentration to determine the IC$50$ values.

Assay [2] has as its target T1, Recombinant TNFα containing an …. Put plainly: FA, FITC-peptide + TNFα titration. On the procedure: as §1, §2
The target is the same in assay [3]. In words: FA, FITC-peptide + TNFα titration. On the procedure: as §1, §2
The source holds these as a separate data set.

Data on 22 molecules can be found in patent publication US10913773B2, “Bicyclic peptidyl inhibitor of tumor necrosis factor-alpha” (Ohio State Innovation Foundation, priority 2016, dated 2021).

Where two headings read alike, the source gives them in different places. Positions of bridges follow the written chain, without caps; N, C: chain ends. Non-standard residues stand in square brackets, D forms with d. Primed or numbered codes have the meaning given here. No end group written: not given here. *: point of attachment. FITC = O=C1OC2(c3ccc(O)cc3Oc3cc(O)ccc32)c2ccc(NC(=S)*)cc21; FITC″ = Lys(FITC) = N6-fluorescein-thiocarbamoyl-L-lysine; trimesoyl″ = benzene-1,3,5-tricarbonyl scaffold; FITC′ = fluorescein isothiocyanate, on Lys NZ; Phe(3,4-F2) = N[C@@H](Cc1ccc(F)c(F)c1)C(=O)O; Phe(4-Cl) = N[C@@H](Cc1ccc(Cl)cc1)C(=O)O; Phe(4-F) = N[C@@H](Cc1ccc(F)cc1)C(=O)O; 2Nal = N[C@@H](Cc1ccc2ccccc2c1)C(=O)O; trimesoyl = benzene-1,3,5-tricarbonyl; Nle = CCCC[C@H](N)C(=O)O; Dap = NC[C@H](N)C(=O)O; Sar = CNCC(=O)O

T1 sequence (P01375 77-233): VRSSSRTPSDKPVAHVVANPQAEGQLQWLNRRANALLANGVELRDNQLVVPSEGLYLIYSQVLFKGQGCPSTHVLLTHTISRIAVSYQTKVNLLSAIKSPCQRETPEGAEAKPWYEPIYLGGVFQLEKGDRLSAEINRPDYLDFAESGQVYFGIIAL

By Kd is commonly meant the equilibrium constant for the complex coming apart. In the case of [Nle]Y[dS]KY[dF]G[dK]H[Dap]K(FITC′)-NH2 (bridge N-4-10 via trimesoyl″; not fully specified (N-terminus)) [C1-11], the “fold reduction in affinity against D-Ala at position-3” value in assay [1] is approximately 2 fold. Further, the Kd in assay [2] and in assay [3] was 1500 nM throughout. Turning to [Nle]Y[dS]KW[dH]G[dK]F[Dap]K(FITC)-NH2 (linker N-4-10 via trimesoyl″) [C1-50], in assay [1], the “fold reduction in affinity against His at position-9” value was approximately 30 fold. The Kd in assay [2] came out at 7500 nM. In the case of [Nle]Y[dS]KW[dH]V[dK]H[Dap]K(FITC)-NH2 (linker N-4-10 via trimesoyl″) [C1-46], in assay [1], the “fold loss of binding against Gly-7” value lay in the range of 3 to 6 fold. The Kd in assay [2] is 880 nM. With [Nle]Y[dS]KY[dH]G[dK]H[Dap]K(FITC)-NH2 (linker N-4-10 via trimesoyl″) [C1-30], the “fold improvement in affinity against D-Phe at position-6” value in assay [1] is approximately 2 fold. Also, the Kd in assay [2] and in assay [3] was 760 nM throughout.

As for [Nle]Y[dS]KW[dH]S[dK]H[Dap]K(FITC)-NH2 (linker N-4-10 via trimesoyl″) [C1-45], in assay [1], the “fold effect on affinity against Gly-7” value amounted to 2 fold. The Kd in assay [2] worked out at 420 nM. Regarding [Nle]Y[dS]KY[dH]A[dK]H[Dap]K(FITC)-NH2 (linker N-4-10 via trimesoyl″) [C1-44], in assay [1], the “fold effect on affinity against Gly-7” value stood at 2 fold. For the same molecule, in assay [2], the Kd was determined as 320 nM. As to [Nle]Y[dS]KW[dH]L[dK]H[Dap]K(FITC)-NH2 (linker N-4-10 via trimesoyl″) [C1-47], the “fold loss of binding against Gly-7” value in assay [1] was 3 to 6 fold. Also, in assay [2], the dissociation constant (Kd) came to 1700 nM. As for [Nle]Y[dA]KY[dF]G[dK]H[Dap]K(FITC)-NH2 (linker N-4-10 via trimesoyl″) [C1-5], in assay [1], the “fold better binding against C1” value is approximately 2 fold. Moreover, the Kd in assay [2] is 850 nM. For [Nle][Phe(4-Cl)][dS]KY[dH]G[dK]H[Dap]K(FITC)-NH2 (linker N-4-10 via trimesoyl″) [C1-40], the Kd in assay [3] worked out at 4100 nM. On the same count and under the same terms, next, [Nle][Phe(4-Cl)][dS]KY[dF]G[dK]H[Dap]K(FITC)-NH2 (linker N-4-10 via trimesoyl″) [C1-24]: 4800 nM; [Nle]Y[dS]K[Phe(4-F)][dH]G[dK]H[Dap]K(FITC)-NH2 (linker N-4-10 via trimesoyl″) [C1-33]: 760 nM. GY[dA]KY[dF]G[dK]H[Dap]K(FITC′)-NH2 (bridge N-4-10 via trimesoyl″; not fully specified (N-terminus)) [C1-1]: the “fold decrease in TNFα binding against C1 (Phg at position-1)” value (“fold decrease in TNFα binding against C1” for short) in assay [1] was not below 5 fold. Further, the Kd in assay [2] came to 7100 nM. The matching figures for TY[dA]KY[dF]G[dK]H[Dap]K(FITC″)-NH2 (linker N-4-10 via trimesoyl) [C1-7]: not below 5 fold and 7200 nM. Turning to SY[dA]KY[dF]G[dK]H[Dap]K(FITC)-NH2 (linker N-4-10 via trimesoyl″) [C1-6], in assay [1], the “fold decrease in TNFα binding against C1” value is not below 5 fold. Moreover, the Kd in assay [2] is 6200 nM. The matching figures for NY[dA]KY[dF]G[dK]H[Dap]K(FITC″)-NH2 (linker N-4-10 via trimesoyl) [C1-9]: not below 5 fold and 7900 nM. The like results for DY[dA]KY[dF]G[dK]H[Dap]K(FITC″)-NH2 (linker N-4-10 via trimesoyl) [C1-8] were, in that order, not below 5 fold and 7000 nM.

B1: C1-10 (peptide)
peptide: RY[dA]KY[dF]G[dK]H[Dap]K(FITC′)-NH2
modifications: bridge (positions not given here) via trimesoyl″; not fully specified (N-terminus, bridges)
As to B1, the “fold decrease in TNFα binding against C1” value in assay [1] is not below 5 fold. For the molecule [Nle]Y[dS]KW[dH]G[dK]H[Dap]RK(FITC)-NH2 (linker N-4-10 via trimesoyl″, C1-35 core with R11 as printed) [C1-53], the “fold reduction in affinity against C1-35” value in assay [1] was more than 40 fold. Consider [Nle]Y[dS]K[Phe(4-Cl)][dH]G[dK]H[Dap]K(FITC)-NH2 (linker N-4-10 via trimesoyl″) [C1-34], for which the Kd in assay [3] is 1600 nM. Still for that read-out and setting: under [Nle]Y[dS]K[2Nal][dH]G[dK]H[Dap]K(FITC)-NH2 (linker N-4-10 via trimesoyl″) [C1-36] stands 1300 nM. Take [Nle]Y[dS]KY[dH][Sar][dK]H[Dap]K(FITC)-NH2 (linker N-4-10 via trimesoyl″) [C1-43]: the “fold effect on affinity against Gly-7” value in assay [1] is 2 fold. Besides, the Kd in assay [2] turned out to be 330 nM. For the molecule [Nle][Phe(3,4-F2)][dS]KY[dF]G[dK]H[Dap]K(FITC)-NH2 (linker N-4-10 via trimesoyl″) [C1-25], the Kd in assay [3] worked out at 5400 nM.
